Like-named read-outs stand apart in the source and are kept apart here.
B1: 40G5c-hIgG1 (antibody, V domains shown)
VH: EVQLVQSGAEVKKPGASVKVSCKASGYTFTNYYIHWVRQAPGQGLEWIGWIYPGDGNTKYNEKFKGRATLTADTSTSTAYLELSSLRSEDTAVYYCARDSYSNYYFDYWGQGTLVTVSS
VL: DIVMTQSPDSLAVSLGERATINCKSSQSLLNSRTRKNYLAWYQQKPGQPPKLLIYWASTRESGVPDRFSGSGSGTDFTLTISSLQAEDVAVYYCTQSFILRTFGQGTKVEIKR
B2: F2B-hIgG1 (antibody, V domains shown)
VH: EVQLVESGGGLVQPGRSLRLSCAASGFTFDDYAMHWVRQAPGKGLEWVSGISWNSGSIGYADSVKGRFTISRDNAKNSLYLQMNSLRAEDTALYYCAKDSRGYGDYRLGGAYWGQGTLVTVSS
VL: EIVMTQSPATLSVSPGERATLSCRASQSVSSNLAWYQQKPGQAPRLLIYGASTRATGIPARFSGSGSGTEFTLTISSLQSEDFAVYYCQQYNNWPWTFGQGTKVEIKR
notes: also called F2Bs

What was measured:
[1] = molecular target: T1, human CD3 on the cell surface (Jurkat cells, expanded human T cells, Jurkat-Lucia NFAT cells, human PBMC) (human, UniProt P07766 23-207; P04234 22-171; P09693 23-182); assay: FACS, expanded human T cells
T1 construct: whole, on cells; Endogenous CD3 within the TCR-CD3 complex on cells (also zeta chains and TCR); the cell type is named under assay
T1 sequence (P07766 23-207, chain 1 of 3): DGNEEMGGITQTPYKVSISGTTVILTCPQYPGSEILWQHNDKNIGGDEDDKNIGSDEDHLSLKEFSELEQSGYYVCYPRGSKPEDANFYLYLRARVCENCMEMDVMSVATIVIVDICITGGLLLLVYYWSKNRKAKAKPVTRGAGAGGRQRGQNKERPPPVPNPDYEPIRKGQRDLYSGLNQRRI
T1 sequence (P04234 22-171, chain 2 of 3): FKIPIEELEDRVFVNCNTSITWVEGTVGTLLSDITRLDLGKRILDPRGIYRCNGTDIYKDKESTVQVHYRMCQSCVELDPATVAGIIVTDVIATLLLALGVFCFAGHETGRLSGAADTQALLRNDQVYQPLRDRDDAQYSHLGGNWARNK
T1 sequence (P09693 23-182, chain 3 of 3): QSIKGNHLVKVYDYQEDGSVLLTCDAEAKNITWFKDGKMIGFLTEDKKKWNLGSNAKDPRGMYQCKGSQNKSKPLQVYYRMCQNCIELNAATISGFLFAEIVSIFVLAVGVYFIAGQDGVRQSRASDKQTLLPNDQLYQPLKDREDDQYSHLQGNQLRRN
Experimental: (§1) The binding of the chimeric antibodies to CD3 on the cell surface was analyzed by detecting the binding of the antibodies to Jurkat cells and human T cells. Suspension cells Jurkat cells were scale-up cultured in T-75 cell culture flasks to the logarithmic growth phase, the supernatant of the medium was discarded by centrifugation, and the cell pellet was washed 2 times with PBS for later use. The expanded human T cells were washed 2 times with PBS for later use. After counting the cells in the previous step, the cell pellet was resuspended with [PBS+2% (w/w) BSA] blocking solution to 4×10⁶ cells/ml, and added to a 96-well FACS reaction plate at 50 μl/well, and then the chimeric antibody to be tested was added at 50 μl/well, and incubated at 4° C. for 1 h. The cells were centrifuged and washed 3 times with a PBS buffer. […] The cells were centrifuged and washed 5 times with PBS, and FACS (FACS Canto™, purchased from BD Company) was used for detection and result analysis. Data analysis was performed by software (CellQuest) to obtain the mean fluorescence […] (MFI) of the cells. And then software (GraphPad Prism8) was used for analysis, data fitting, and EC50 value calculation. The same method was used to simultaneously detect the binding of the chimeric antibodies to endogenous CD3 negative cells MOLT4 cells.

[2] = molecular target: T2, cynomolgus monkey CD3 on the surface of expanded monkey T cells (cynomolgus monkey, UniProt Q95LI5 22-198; Q95LI8 22-171; Q95LI7 23-181); assay: FACS, expanded monkey T cells
T2 construct: whole, on cells; Endogenous CD3 within the TCR-CD3 complex on T cells expanded from cynomolgus monkey PBMC
T2 sequence (Q95LI5 22-198, chain 1 of 3): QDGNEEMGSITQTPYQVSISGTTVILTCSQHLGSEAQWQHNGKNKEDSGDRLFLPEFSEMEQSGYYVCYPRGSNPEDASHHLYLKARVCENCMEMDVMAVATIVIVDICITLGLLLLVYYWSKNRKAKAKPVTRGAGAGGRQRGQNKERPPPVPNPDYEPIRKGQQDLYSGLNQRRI
T2 sequence (Q95LI8 22-171, chain 2 of 3): as the sequence (P04234 22-171, chain 2 of 3) above, with I5V, N15K, I20V, S32T, D33N, I34N, T64A, S74N, V83L, H141R counted along it
T2 sequence (Q95LI7 23-181, chain 3 of 3): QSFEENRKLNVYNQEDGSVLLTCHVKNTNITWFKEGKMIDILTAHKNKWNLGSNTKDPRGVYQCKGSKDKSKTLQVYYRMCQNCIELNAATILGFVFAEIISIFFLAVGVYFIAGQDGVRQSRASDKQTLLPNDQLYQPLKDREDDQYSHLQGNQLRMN

[3] = molecular target: T3, human CD3ε/δ-His (human, UniProt P07766 23-126; P04234 22-105); assay: ELISA, coated antigen
T3 construct: Bought recombinant heterodimer with His tag; also called human CD3ε/δ protein
T3 sequence (P07766 23-126, stated change not applied, form in doubt, chain 1 of 2): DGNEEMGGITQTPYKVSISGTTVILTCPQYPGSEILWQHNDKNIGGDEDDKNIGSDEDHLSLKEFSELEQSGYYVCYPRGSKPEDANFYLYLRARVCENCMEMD
T3 sequence (P04234 22-105, stated change not applied, form in doubt, chain 2 of 2): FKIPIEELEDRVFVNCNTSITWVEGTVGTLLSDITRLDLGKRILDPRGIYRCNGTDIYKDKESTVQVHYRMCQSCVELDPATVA

[4] = molecular target: T1, human CD3 on the cell surface (Jurkat …); assay: FACS, expanded human T cells; remark: listed apart in the source
Experimental: as §1

[5] = molecular target: T1, human CD3 on the cell surface (Jurkat …); assay: FACS, Jurkat cells
Experimental: as §1

[6] = molecular target: T1, human CD3 on the cell surface (Jurkat …); assay: FACS, expanded human T cells; remark: listed apart in the source
Experimental: as §1

[7] = molecular target: T1, human CD3 on the cell surface (Jurkat …); assay: FACS, expanded human T cells; remark: listed apart in the source
[8] = molecular target: T2, cynomolgus monkey CD3 on the surface of …; assay: FACS, expanded monkey T cells, 4 nM antibody
Experimental: as §1
FACS detection and data analysis were performed on the cryopreserved monkey T cells of Example 2.4 according to the method in Example 5.1.

[9] = molecular target: T4, recombinant human CD3ε-ECD His protein (human, UniProt P07766 23-126); assay: ELISA, coated antigen
T4 construct: extracellular domain; also called human CD3ε-His; CD3ε antigen protein; not shown: His tag
T4 sequence (P07766 23-126): as the sequence (P07766 23-126, stated change not applied, form in doubt, chain 1 of 2) above
Experimental: (§2) To detect the binding activity of the humanized antibodies to CD3 protein, CD3 protein was diluted with PBS to the final concentration of […], then added to a 96-well ELISA plate at 50 μL/well, and the plate was sealed with a plastic film, and incubated overnight at 4° C. On the next day, the plate was washed 2 times with PBS, and a blocking solution [PBS+2% (v/v) BSA] was added for blocking at room temperature for 2 h. The blocking solution was poured off, and the antibody (initial concentration of 100 nM, and gradient dilution at 1:10) or a negative control antibody was added at 50 µl/well. After incubation at 37° C. for 2 h, the plate was washed 3 times with PBS. […] TMB substrate was added at 50 μl/well, and incubated at room temperature for 10 min, and then a stop solution (1.0 N HCl) was added at 50 μl/well. The OD450 nm values were read by an ELISA microplate reader (Multimode Plate Reader, EnSight, purchased from Perkin Elmer).

[10] = molecular target: T3, human CD3ε/δ-His; assay: ELISA, coated antigen; remark: listed apart in the source
Experimental: as §2

[11] = molecular target: T4, recombinant human CD3ε-ECD His protein; assay: ELISA, coated antigen; remark: listed apart in the source
Experimental: as §2

[12] = molecular target: T3, human CD3ε/δ-His; assay: ELISA, coated antigen; remark: listed apart in the source
Experimental: as §2

[13] = molecular target: T1, human CD3 on the cell surface (Jurkat …); assay: FACS, expanded human T cells; remark: listed apart in the source
Experimental: as §1

[14] = molecular target: T1, human CD3 on the cell surface (Jurkat …); assay: FACS, Jurkat cells; remark: listed apart in the source
Experimental: as §1

Row | Binder | EC50 [1] [nM] | MFI_Max [1] [MFI] | max_MFI [2] [MFI] | max-OD450 [3] [OD450] | EC50 [4] [nM] | MFI_Max [4] [MFI] | EC50 [5] [nM] | MFI_Max [5] [MFI] | EC50 [6] [nM] | MFI_Max [6] [MFI] | EC50 [7] [nM] | max_MFI [7] [MFI] | MFI at antibody concentration 4 nM [8] [MFI] | max-OD450 [9] [OD450] | max-OD450 [10] [OD450] | max-OD450 [11] [OD450] | max-OD450 [12] [OD450] | EC50 [13] [nM] | MFI_Max [13] [MFI] | EC50 [14] [nM] | further results
1 | B1 | 0.7 | 12300 | 24100 | 2.83 | 0.99 | 26500 | 0.16 | 6340 | 0.46 | 40900 | 2.09 | 33500 | 41000 | 3.09 | 2.83 | 2.59 | 2.83 | 0.66 | 15400 | 0.1 | EC50 [2]: 0.89 nM; EC50 [3]: 0.36 nM; EC50 [9]: 0.118 nM; EC50 [10]: 0.36 nM; EC50 [11]: 0.22 nM; EC50 [12]: 0.36 nM; MFI_Max [14]: 29500 MFI
2 | B2 | 10.4 | 1980 | 72 | 0.16 | 5.71 | 5080 | 8.77 | 841 | 7.56 | 8780 | 7.03 | 9270 | 63 | 0.1 | 0.16 | 0.16 | 0.16 | 15.8 | 2360 | 20.4 | binding result [9]: no binding (tested: 100 nM (initial concentration)); MFI_Max [14]: 4860 MFI
